Measurements reported in patent US20050089961A1 (NEUROMED PHARMACEUTICALS, published 2005).

Molecular target: rat α1B+β1b calcium channel (N-type calcium channel) (rat, UniProt Q02294 1-2336; P54283 1-597)
Assay: cell-based or functional assay

Sequence of rat α1B+β1b calcium channel (N-type calcium channel) (Q02294 whole entry, chain 1 of 2): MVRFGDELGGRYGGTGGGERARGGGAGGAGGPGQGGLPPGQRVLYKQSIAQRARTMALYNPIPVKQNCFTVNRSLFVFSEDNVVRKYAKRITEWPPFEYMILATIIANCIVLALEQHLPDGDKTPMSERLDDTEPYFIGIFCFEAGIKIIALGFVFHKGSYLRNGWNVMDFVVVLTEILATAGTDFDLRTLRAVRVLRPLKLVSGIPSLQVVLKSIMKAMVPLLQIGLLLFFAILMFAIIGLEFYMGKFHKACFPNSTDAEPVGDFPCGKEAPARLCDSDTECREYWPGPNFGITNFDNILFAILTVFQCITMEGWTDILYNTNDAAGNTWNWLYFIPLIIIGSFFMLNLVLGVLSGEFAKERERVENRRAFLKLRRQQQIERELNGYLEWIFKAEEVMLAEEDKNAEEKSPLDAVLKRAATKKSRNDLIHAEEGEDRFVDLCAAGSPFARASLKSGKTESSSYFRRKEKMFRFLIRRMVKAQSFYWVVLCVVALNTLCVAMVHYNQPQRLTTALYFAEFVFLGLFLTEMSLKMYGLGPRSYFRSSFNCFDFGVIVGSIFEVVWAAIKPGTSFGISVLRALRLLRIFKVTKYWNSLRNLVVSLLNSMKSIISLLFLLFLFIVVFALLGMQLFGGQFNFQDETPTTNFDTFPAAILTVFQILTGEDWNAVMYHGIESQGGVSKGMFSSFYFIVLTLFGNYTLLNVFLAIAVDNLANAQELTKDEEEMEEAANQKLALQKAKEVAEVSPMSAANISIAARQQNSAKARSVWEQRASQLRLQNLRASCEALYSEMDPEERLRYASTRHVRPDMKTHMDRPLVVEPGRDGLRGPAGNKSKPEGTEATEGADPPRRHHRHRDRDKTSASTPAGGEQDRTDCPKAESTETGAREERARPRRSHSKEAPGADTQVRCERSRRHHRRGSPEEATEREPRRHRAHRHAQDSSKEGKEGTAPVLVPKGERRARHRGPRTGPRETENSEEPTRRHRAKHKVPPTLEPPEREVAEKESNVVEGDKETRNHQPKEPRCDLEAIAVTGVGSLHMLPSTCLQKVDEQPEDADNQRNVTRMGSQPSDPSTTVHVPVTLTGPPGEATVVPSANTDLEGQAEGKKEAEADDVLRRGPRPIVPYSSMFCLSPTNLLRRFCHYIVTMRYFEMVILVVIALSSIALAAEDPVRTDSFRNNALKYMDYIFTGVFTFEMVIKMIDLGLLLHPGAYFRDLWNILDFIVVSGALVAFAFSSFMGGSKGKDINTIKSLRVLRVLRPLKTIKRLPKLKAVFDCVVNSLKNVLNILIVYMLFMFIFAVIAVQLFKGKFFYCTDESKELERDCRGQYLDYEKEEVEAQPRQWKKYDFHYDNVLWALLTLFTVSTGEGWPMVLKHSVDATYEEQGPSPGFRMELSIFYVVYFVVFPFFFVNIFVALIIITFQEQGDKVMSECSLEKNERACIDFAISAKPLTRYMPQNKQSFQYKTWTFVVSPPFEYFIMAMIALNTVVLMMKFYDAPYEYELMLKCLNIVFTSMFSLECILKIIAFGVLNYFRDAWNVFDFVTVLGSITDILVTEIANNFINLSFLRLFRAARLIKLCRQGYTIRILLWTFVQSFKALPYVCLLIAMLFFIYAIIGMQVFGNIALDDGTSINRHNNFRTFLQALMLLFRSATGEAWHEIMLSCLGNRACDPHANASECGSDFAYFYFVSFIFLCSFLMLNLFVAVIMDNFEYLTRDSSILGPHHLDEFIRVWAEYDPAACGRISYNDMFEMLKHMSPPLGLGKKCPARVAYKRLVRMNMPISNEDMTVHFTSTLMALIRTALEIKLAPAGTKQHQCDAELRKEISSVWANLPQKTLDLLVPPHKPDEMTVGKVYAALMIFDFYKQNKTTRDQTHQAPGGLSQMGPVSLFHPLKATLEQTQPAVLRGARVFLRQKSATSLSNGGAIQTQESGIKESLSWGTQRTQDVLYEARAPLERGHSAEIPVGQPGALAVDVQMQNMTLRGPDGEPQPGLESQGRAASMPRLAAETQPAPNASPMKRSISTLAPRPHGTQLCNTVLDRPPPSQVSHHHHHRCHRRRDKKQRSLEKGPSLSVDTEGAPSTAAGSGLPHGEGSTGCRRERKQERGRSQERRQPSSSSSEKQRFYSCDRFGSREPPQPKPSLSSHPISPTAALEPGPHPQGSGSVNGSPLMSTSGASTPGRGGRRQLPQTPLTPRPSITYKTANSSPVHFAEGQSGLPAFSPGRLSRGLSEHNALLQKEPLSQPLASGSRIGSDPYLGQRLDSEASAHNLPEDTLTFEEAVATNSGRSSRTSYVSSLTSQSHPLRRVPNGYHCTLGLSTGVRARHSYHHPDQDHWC
Sequence of rat α1B+β1b calcium channel (N-type calcium channel) (P54283 whole entry, chain 2 of 2): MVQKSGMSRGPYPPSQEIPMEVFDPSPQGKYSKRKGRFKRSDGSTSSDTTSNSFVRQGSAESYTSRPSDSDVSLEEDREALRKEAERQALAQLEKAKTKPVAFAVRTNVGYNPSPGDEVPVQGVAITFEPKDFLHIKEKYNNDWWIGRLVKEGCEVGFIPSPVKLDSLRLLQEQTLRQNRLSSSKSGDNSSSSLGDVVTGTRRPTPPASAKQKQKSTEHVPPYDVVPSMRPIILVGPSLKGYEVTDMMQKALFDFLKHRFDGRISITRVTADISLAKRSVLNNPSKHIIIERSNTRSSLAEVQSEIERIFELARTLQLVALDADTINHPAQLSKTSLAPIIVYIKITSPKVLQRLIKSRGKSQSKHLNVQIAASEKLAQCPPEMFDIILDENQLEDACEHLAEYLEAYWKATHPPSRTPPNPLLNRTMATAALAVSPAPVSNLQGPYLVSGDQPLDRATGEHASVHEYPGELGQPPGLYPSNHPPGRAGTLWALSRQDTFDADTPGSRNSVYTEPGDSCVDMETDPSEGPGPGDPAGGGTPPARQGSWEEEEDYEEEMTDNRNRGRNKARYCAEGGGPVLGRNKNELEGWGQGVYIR

B1: full-length chicken α2δ-1 calcium channel subunit (other)
chain: HSSEGPFPSPTTIKSWVDKMQEDLITLARTASGVEQLAAIYLKNKDLYTVEANNPRQLVEIAARDIEKLLSNRSKALVRLAKEAEKYQASHQWRDEFGNNDIIYYNAKDDQNDPEKNDTESGSQRIRPVFEEDPVFRRQTSYQHAAVHIPTDIYEGSTIVLNELNWTAALDDVFKRNREEDPTLLWQVFGSATGLARYYPASPWVDNSRTPNKIDLYDVRRRPWYIQGAASPKDMLILVDASGSVSGLTLKLIRTSVIEMLETLSDDDFVNVVSFNNNAQNVSCFNHLVQANVRNKKKLKEAVDKISAKGITDYKKGFSYAFEQLLNHSVSRANCNKIIMLFTDGGEERAQEIFHKYNEDKKVRVFTFSVGQHNYDKGPIQWMACENKGYYYEIPSIGAIRINTQEYLDVLGRPMVLAGEKAKQVQWTNVYLDALELGLVITGTLPVFNLTKEQNGKINQLILGVMGVDVSLEDIKKLTPRFTLCPNGYYFAIDPNGYVLLHPNLQPKNPKSQEPVTLDFLDAELENDIKVEIRKKMIDGESGEKTFETLVKSQDERYIDKGNRTYTWTAVNGTDYSLALVLPSYSFYYIKAKIEEPITQARLEIKKDSETLKIDHFDEAGYTFIAPREYCTDVKKSENNTEFLLNFNEFIDRNTPSSPSCNTDMVIRVLLDAGFTNELAQNYWSKLYLDGVVAQFVVTDGGITRVFPKRAGEDWLENAETYEVSFYKRSLDNDNYIFTAPYYNKSGANSYESGIMVSKAVEITINGKLLKPAVVGIKIDAMKWMENFTTTTIKSLCNSEICGCEKNSMHVDCVILDDGGFLLMSNRDEYTHQIGRFFGEIDPGLMRNLINMSLYAFNKSYDYQSVCDPEEEPKQGAGLRSAYVPTIADILQLGWWASAAAWSILQQLFLSLTFPRFLEAADMEDDDFSTALPKTSCITEQTQYFFENDDKSFIGIVDCINCSRLYHAEKISNTNLVFIISDSQLLCRSCDPKPLMQAEKPDEGPNPCEMVKQPRYRKGPDVCFDEAKQEDSADCGGASGLSPSLWSMVGIQLVLLWLLSGSRHYQL
  current density (Ipeak/cell capacitance), whole-cell patch clamp, fold increase on coexpression: ~10 fold
